Data set [1] deals with recombinant CK2α. Briefly: cell-based or functional assay.
In data set [2] the target is Replication protein A 32 kDa subunit (Homo sapiens, UniProt P15927).
Data set [3] has as its target Serine/arginine-rich splicing factor 8 (Homo sapiens) (UniProt Q9BRL6).
In data set [4] the target is U6 snRNA-associated Sm-like protein LSm8 (Homo sapiens) (UniProt O95777).
The target of data set [5] is Surfeit locus protein 2 (Homo sapiens, UniProt Q15527).
For data set [6], the target named is Histone H2A type 2-B (Homo sapiens, UniProt Q8IUE6).
Data set [7] concerns the target Calponin-3 (Homo sapiens) (UniProt Q15417).
In data set [8] the target is High mobility group protein HMGI-C (Homo sapiens) (UniProt P52926).
Data set [9] has as its target Cullin-1 (Homo sapiens, UniProt Q13616).
Data set [10] has as its target Xaa-Pro aminopeptidase 1 (Homo sapiens, UniProt Q9NQW7).
For data set [11], the target named is Arginyl-tRNA-protein transferase 1 (Homo sapiens, UniProt O95260).
In data set [12] the target is Gem-associated protein 2 (Homo sapiens) (UniProt O14893).
The target of data set [13] is Cleavage stimulation subunit 3 (Homo sapiens) (UniProt Q12996).
Data set [14] addresses Collagen alpha-1(V) chain (Homo sapiens, UniProt P20908).
Data set [15] deals with A549 cells. Briefly: ROS levels (DHE reagent) and cell viability by flow cytometry. In kind it is cell-based, human. As to conditions: for DHE reagent (Geometric mean) Mean: ROS level. Here is the method: In addition to inducing higher levels of apoptosis compared to the CIGB-300 peptide, the lipopeptide also triggered greater reactive oxygen species (ROS) production in A549 cells after 2 hours of incubation with the antioxidant N-acetyl-L-cysteine (NAC), as analyzed by flow cytometry (Table 2). The elevated ROS levels were correlated with the stronger inhibitory effect of the lipopeptide on cell viability. Table 2: ROS levels induced by the lipopeptide and the CIGB-300 peptide in A549 cells
Background: A flow cytometer gives signals particle by particle.

In data set [16] the test system is RR-805. Briefly: Cell viability, Alamar Blue (benign cells). As to conditions: RR-805, Benign, Renal primary fibroblasts; 48 hours of incubation. In kind it is cell-based.
In data set [17] the test system is HepG2. Description: Tumor cell viability, Alamar Blue. The format is cell-based, human. As to conditions: HepG2, Malignant, Hepatocellular carcinoma; 48 hours of incubation. The method, then: (§1) All human tumor cells used in the present application were obtained from the American Type Culture Collection (ATCC, Manassas, VA, USA) and cultured in RPMI 1640 medium (Gibco) supplemented with 10% (v/v) fetal bovine serum and gentamicin (50 µg/ml) at 37 °C in a 5% CO2 atmosphere. The effects of the lipopeptide and the CIGB-300 peptide on tumor cell viability were assessed using Alamar Blue reagent (Life Technologies, Carlsbad, CA, USA). Cells were seeded in flatbottom 96-well plates (2×10^5 cells/mL, 200 µL/well) and incubated for 24 hours, followed by treatment with the lipopeptide and the CIGB-300 peptide serially diluted from 100 to 3.12 µM at a 1:2 ratio. After 48 hours of incubation, 10% (v/v) Alamar Blue was added, and the cell suspension was incubated for an additional 4 hours. Fluorescence intensity in the microplates was measured, and IC50 values were calculated using CalcuSyn software (version 2.1) (Biosoft, Cambridge, UK).
(Alamar Blue is a resazurin reagent that responds to reducing activity.)

Data set [18] deals with SK-MES1. Description: Tumor cell viability, Alamar Blue. In kind it is cell-based, human. Conditions: SK-MES1, Malignant, NSCLC; 48 hours of incubation. The method, then: as §1
The subject of data set [19] is NCI-H460. Briefly: Tumor cell viability, Alamar Blue. In kind it is cell-based, human. Conditions: NCI-H460, Malignant, NSCLC; 48 hours of incubation. Here is the method: as §1
The subject of data set [20] is Hep-2. Description: Tumor cell viability, Alamar Blue. In kind it is cell-based, human. As to conditions: Hep-2, Malignant, Laryngeal squamous cell carcinoma; 48 hours of incubation. The method, then: as §1
Data set [21] has as its system NCI-H226. Briefly: Tumor cell viability, Alamar Blue. The format is cell-based, human. As to conditions: NCI-H226, Malignant, NSCLC; 48 hours of incubation. Here is the method: as §1
Data set [22] relates to PC3. Description: Tumor cell viability, Alamar Blue. The format is cell-based, human. As to conditions: PC3, Malignant, Prostate cancer; 48 hours of incubation. Here is the method: as §1
In data set [23] the test system is NCI-H522. Description: Tumor cell viability, Alamar Blue. The format is cell-based, human. As to conditions: NCI-H522, Malignant, NSCLC; 48 hours of incubation. The method, then:
as §1

Data set [24] deals with NCI-H82. Description: Tumor cell viability, Alamar Blue. The format is cell-based, human. As to conditions: NCI-H82, Malignant, SCLC; 48 hours of incubation. Here is the method: as §1
Data set [25] relates to A549. Description: Tumor cell viability, Alamar Blue. As to conditions: A549, Malignant, NSCLC; 48 hours of incubation. The format is cell-based, human. The method, then: as §1
For data set [26], the system named is U87. Description: Tumor cell viability, Alamar Blue. The format is cell-based, human. As to conditions: U87, Malignant, Glioblastoma; 48 hours of incubation. Here is the method:
as §1

The test system of data set [27] is SW948. Description: Tumor cell viability, Alamar Blue. In kind it is cell-based, human. Conditions: SW948, Malignant, Colon adenocarcinoma; 48 hours of incubation. Here is the method:
as §1

Data set [28] relates to NCI-H125. Description: Tumor cell viability, Alamar Blue. In kind it is cell-based, human. As to conditions: NCI-H125, Malignant, NSCLC; 48 hours of incubation. Here is the method:
as §1

Data set [29] relates to A431. Description: Tumor cell viability, Alamar Blue. Conditions: A431, Malignant, Vulvar epidermoid carcinoma; 48 hours of incubation. The format is cell-based, human. The method, then: as §1
The test system of data set [30] is MRC-5. Description: Cell viability, Alamar Blue (benign cells). In kind it is cell-based. As to conditions: MRC-5, Benign, Lung fibroblasts; 48 hours of incubation.
The mark [31] stands for this setting: With NAC, 2 hours of incubation.

Sequence of Serine/arginine-rich splicing factor 8 (Homo sapiens) (Q9BRL6 2-282 limits assumed): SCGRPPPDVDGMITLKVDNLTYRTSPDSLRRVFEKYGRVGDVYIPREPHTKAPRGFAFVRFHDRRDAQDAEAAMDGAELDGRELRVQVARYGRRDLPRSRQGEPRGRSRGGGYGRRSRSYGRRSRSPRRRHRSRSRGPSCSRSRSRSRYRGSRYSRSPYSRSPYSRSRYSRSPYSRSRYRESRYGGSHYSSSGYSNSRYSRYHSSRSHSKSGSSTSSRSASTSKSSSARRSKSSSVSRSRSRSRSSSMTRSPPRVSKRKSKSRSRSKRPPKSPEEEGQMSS
Sequence of Xaa-Pro aminopeptidase 1 (Q9NQW7 2-623 limits assumed): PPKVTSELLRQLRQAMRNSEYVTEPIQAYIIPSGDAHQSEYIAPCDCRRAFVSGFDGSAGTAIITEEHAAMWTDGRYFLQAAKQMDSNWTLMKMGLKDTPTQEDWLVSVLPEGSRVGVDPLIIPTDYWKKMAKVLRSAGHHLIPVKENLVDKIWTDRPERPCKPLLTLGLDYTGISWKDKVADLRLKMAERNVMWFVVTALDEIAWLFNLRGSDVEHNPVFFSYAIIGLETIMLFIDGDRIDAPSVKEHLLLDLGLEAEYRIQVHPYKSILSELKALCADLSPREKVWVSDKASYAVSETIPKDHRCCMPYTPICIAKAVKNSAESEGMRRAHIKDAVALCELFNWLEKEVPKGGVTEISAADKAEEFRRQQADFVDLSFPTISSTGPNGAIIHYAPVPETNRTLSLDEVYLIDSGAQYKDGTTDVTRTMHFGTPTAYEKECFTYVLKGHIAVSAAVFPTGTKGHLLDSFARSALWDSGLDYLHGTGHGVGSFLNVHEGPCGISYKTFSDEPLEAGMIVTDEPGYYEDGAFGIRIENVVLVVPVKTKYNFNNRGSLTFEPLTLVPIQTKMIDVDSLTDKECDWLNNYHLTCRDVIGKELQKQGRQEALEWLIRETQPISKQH
Sequence of Calponin-3 (Homo sapiens) (Q15417 whole entry): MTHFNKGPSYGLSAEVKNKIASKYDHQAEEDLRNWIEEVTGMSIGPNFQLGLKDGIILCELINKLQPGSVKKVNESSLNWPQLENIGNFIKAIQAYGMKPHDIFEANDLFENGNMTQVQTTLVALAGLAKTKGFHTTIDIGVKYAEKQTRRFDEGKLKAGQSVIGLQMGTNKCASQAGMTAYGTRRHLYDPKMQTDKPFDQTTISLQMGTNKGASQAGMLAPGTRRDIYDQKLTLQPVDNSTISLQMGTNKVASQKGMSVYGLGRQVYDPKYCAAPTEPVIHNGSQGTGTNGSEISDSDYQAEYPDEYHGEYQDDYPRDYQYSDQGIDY
Sequence of Collagen alpha-1(V) chain (P20908 38-1605 limits assumed): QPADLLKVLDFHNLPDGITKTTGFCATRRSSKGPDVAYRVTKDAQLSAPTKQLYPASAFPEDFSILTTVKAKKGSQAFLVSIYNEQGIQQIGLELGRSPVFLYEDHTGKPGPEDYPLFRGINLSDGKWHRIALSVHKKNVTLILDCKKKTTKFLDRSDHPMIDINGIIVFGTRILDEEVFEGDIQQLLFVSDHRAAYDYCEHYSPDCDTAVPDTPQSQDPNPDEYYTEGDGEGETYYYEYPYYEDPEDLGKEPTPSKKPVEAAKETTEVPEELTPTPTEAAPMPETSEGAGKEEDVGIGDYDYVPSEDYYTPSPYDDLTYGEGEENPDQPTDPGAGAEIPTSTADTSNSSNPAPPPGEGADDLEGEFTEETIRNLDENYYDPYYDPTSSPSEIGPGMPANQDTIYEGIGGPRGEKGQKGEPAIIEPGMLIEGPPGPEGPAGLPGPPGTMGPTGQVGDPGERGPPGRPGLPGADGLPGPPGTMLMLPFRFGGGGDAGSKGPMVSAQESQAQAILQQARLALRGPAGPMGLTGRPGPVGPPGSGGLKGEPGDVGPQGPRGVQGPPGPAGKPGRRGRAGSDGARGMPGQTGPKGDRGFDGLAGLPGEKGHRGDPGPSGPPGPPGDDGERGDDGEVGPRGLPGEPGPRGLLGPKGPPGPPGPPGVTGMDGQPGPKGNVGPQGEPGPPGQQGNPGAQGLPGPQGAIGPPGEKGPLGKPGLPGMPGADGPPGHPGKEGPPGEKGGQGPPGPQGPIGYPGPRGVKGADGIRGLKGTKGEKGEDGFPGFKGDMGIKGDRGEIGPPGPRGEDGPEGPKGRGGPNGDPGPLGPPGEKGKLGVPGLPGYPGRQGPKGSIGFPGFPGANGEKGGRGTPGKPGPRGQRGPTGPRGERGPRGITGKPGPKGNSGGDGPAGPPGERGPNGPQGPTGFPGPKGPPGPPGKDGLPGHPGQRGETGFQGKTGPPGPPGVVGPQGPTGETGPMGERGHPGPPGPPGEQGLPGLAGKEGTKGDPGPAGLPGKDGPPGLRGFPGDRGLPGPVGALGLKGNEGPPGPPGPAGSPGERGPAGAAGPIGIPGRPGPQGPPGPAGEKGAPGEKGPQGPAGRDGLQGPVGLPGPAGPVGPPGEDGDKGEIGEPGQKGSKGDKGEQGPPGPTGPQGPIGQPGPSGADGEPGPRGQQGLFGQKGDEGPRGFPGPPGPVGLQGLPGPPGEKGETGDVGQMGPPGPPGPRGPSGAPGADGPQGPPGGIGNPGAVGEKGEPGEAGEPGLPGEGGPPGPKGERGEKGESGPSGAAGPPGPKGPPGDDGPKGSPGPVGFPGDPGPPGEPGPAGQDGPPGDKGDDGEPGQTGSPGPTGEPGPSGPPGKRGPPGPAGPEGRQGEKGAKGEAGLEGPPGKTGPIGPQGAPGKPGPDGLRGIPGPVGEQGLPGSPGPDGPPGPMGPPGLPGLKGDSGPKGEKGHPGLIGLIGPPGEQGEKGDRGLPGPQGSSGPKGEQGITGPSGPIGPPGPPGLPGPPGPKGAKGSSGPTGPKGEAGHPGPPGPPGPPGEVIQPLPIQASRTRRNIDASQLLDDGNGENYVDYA
Sequence of Cleavage stimulation subunit 3 (Homo sapiens) (Q12996 2-717 limits assumed): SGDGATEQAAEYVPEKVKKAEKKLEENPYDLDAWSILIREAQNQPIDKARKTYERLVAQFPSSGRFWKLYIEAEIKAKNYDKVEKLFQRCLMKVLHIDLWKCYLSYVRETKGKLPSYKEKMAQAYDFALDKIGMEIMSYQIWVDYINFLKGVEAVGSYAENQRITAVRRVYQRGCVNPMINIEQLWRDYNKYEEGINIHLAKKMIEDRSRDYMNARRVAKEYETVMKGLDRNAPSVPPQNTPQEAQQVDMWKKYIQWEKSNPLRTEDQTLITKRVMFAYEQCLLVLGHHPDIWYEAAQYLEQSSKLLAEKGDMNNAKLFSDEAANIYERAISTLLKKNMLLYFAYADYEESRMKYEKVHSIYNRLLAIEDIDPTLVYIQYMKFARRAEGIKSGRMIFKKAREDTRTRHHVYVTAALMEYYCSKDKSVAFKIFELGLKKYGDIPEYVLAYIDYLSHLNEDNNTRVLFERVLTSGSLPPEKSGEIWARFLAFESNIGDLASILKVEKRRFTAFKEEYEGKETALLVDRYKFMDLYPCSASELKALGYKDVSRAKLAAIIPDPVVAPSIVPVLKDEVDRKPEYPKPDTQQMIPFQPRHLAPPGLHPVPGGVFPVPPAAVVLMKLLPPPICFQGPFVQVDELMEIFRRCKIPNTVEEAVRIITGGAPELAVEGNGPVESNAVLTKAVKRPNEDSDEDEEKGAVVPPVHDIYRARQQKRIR
Sequence of U6 snRNA-associated Sm-like protein LSm8 (Homo sapiens) (O95777 2-96 limits assumed): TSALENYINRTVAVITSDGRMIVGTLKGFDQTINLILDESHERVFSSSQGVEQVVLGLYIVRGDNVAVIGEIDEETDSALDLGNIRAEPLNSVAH
Sequence of High mobility group protein HMGI-C (Homo sapiens) (P52926 2-109 limits assumed): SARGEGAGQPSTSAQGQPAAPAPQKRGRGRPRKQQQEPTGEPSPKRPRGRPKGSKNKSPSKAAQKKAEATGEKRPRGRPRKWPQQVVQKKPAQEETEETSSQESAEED
Sequence of Replication protein A 32 kDa subunit (P15927 whole entry): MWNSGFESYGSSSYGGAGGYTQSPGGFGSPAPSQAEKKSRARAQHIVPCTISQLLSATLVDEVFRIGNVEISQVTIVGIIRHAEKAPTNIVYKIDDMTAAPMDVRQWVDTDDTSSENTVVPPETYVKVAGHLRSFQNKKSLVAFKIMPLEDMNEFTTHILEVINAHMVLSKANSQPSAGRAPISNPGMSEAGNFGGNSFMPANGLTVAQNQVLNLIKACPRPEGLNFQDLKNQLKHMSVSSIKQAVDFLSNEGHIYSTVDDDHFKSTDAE
Sequence of Gem-associated protein 2 (Homo sapiens) (O14893 whole entry): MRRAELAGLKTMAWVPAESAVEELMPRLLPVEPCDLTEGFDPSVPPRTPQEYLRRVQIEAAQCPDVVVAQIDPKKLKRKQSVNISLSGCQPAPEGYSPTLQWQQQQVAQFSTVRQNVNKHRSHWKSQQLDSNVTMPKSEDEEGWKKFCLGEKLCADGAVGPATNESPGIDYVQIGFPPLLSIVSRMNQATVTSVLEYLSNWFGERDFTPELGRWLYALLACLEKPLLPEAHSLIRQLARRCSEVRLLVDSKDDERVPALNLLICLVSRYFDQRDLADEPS
Sequence of Arginyl-tRNA-protein transferase 1 (O95260 whole entry): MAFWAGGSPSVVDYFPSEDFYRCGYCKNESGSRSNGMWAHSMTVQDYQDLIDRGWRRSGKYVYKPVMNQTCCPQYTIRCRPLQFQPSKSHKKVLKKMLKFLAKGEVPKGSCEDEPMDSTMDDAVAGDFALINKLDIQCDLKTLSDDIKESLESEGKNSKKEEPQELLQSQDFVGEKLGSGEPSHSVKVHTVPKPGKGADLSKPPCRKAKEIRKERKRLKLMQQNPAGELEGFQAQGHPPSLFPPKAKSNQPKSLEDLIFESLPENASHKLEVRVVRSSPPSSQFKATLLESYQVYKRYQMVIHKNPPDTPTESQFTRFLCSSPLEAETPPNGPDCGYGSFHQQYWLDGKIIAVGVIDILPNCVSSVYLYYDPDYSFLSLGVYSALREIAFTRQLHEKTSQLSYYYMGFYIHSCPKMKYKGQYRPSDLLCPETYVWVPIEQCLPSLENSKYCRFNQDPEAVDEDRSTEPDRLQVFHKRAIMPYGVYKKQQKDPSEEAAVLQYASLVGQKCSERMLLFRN

For the compound CIGB-300 peptide, in [1], the CK2 enzyme activity (CPM x10^3) at 0.00 µM peptide (baseline without peptide) is 170000 CPM, the CK2 enzyme activity (CPM x10^3) at 0.097 µM peptide stood at 171000 CPM, the CK2 enzyme activity (CPM x10^3) at 0.195 µM peptide came to 169000 CPM and the CK2 enzyme activity (CPM x10^3) at 0.39 µM peptide worked out at 162000 CPM. Besides, in data set [1], the CK2 enzyme activity (CPM x10^3) at 0.781 µM peptide was 158000 CPM, the CK2 enzyme activity (CPM x10^3) at 1.56 µM peptide was determined as 109000 CPM, the CK2 enzyme activity (CPM x10^3) at 3.125 µM peptide was determined as 92000 CPM and the CK2 enzyme activity (CPM x10^3) at 6.25 µM peptide was found to be 61000 CPM. For the same compound, in [1], the CK2 enzyme activity (CPM x10^3) at 12.5 µM peptide turned out to be 31000 CPM, the CK2 enzyme activity (CPM x10^3) at 25 µM peptide is 19000 CPM and the CK2 enzyme activity (CPM x10^3) at 50 µM peptide worked out at 4000 CPM.
“synthetic anti-cancer lipopeptide (decanoyl-CIGB-300)”: the Abundance ratio of lipopeptide/CIGB-300 in data set [2] was 2.1; in data set [3], 2.86; in data set [4] it was 3.31; in data set [5] it was 2.05; in data set [6], 2.19; in [7] it was 2.37. The Abundance ratio of lipopeptide/CIGB-300 came out at 3.88 in data set [8]; 2.3 in [9]; 2.26 in data set [10]; 2.01 in [11]; 2.62 in data set [12]; 5.12 in [13]. For the same compound, the Abundance ratio of lipopeptide/CIGB-300 in data set [14] turned out to be 2.97.
`OO` [H2O2]: in data set [15] (setting [31]), the “Cell viability (%) Mean” value was 94.9% and the “DHE reagent (Geometric mean) Mean” value is recorded as 4175. For the same compound, in data set [15] (Without NAC), the “Cell viability (%) Mean” value is 94.0% and the “DHE reagent (Geometric mean) Mean” value is listed as 4335.
For orientation: IC50 means the concentration needed to halve the response being measured. Read a high IC50 as lower potency. On to `CSCC[C@@H]1NC(=O)[C@H](Cc2c[nH]c3ccccc23)NC(=O)[C@@H](NC(=O)CCNC(=O)[C@H](CCC(N)=O)NC(=O)[C@@H]2CCCN2C(=O)[C@@H]2CCCN2C(=O)[C@H](CCCNC(=N)N)NC(=O)[C@H](CCCNC(=N)N)NC(=O)[C@H](CCCNC(=N)N)NC(=O)[C@H](CCC(N)=O)NC(=O)[C@H](CCCNC(=N)N)NC(=O)[C@H](CCCNC(=N)N)NC(=O)[C@H](CCCCN)NC(=O)[C@H](CCCCN)NC(=O)[C@H](CCCNC(=N)N)NC(=O)CN)CSSC[C@@H](C(N)=O)NC(=O)[C@H]([C@@H](C)O)NC(=O)CNC(=O)[C@H](CC(C)C)NC(=O)[C@H](Cc2c[nH]cn2)NC(=O)[C@H](CCCNC(=N)N)NC(=O)[C@@H]2CCCN2C(=O)[C@H](CO)NC1=O` [The CIGB-300 peptide, reference compound], for which the IC50 in [16] is 230 ± 6 µM; in data set [17], 128 ± 44 µM; in [18], 150 ± 7 µM; in data set [19], 30 ± 9 µM; in [20], 30.7 ± 2 µM; in data set [21], 70.8 µM. The IC50 in [22] came out at 170 ± 5 µM; in [23] it was 70 µM; in [24], 39.7 ± 11 µM; in data set [25], 180 ± 30 µM; in data set [26] it was 154 ± 15 µM; in data set [27] it was 143.1 ± 1 µM. The IC50 in data set [28] amounted to 76.3 ± 2 µM; in data set [29] it was 90.7 ± 4 µM; in [30], 198 ± 8 µM.

The values above are taken from patent EP4796565A1, “SYNTHESIZED ANTI-CANCER LIPOPEPTIDE AND USE THEREOF” (Yongzhou Zhonggu Biotechnology Co., Ltd., priority 2023, dated 2025).
